This note sets out measurements from publication PMC12578637, “Structure of a distinct β-barrel assembly machinery complex in the Bacteroidota” (Nature Microbiology, 2025).

To fix the notation:
B2: BtBamH (Bt4306) (natural protein, UniProt Q89ZS0 18-542, looked up)
chain: CDDNTGGLGLGMFPGNDQNIKGKLSTFDVTTESVKTGDIYAKTNIGYIGKFTDETFGTYQAGFLAQLNCPDGLTFPEPYKEVTDASGNVISATGRMVVDDKDPENKDVTFIKDGNQIIGNIRAVELYLWYDSYFGDSLTACRLSVYELGGNGKETLNLDNAYYTDINPEDFYDSQNILGTKAYTAVDLSVKDSIRNLSTYVPSVHIAFKEDIATRVGGNILTAARKAKNADKEFNSQLFREAFQGIYVKSDYGDGTVLYIDQPQMNVVYKCYATDSITGKKLQKKDGSGKDSTYYSYRVFATTREVIQANQLKNDPERIDALIKEDKNTYLKSPAGIFTEATLPISDIQNELTGDTLNAVKLTFTNYNQTGDKKFGMAIPSTVMLVRKKFQDSFFKDNKLSDGVSSYLTSHTSSTNQYVFSNITKLVNACIAEKEEAKKNAGSSWDETKWLQENPDWNKVVLIPVLVTYDSSNTTTGQANIIRIQHDLKPGYVRLKGGSLGKTNPDYKLKLEVISTDFGLTTKSN
modifications: tri-acylated lipid anchor on the N-terminal cysteine; O-glycosylation (Ser309 among the sites)

Common to all, as to experiment: cryo-EM structure; BtBAM complex co-purified through BamAhis from native membranes, in DDM, 8 mg/ml; two 3D classes (3.28 Å and 3.46 Å); AF2 models docked and refined
Details in all cases: both partners purified

In one test the target is T1, BtBamI (Bt3727) (B. thetaiotaomicron (endogenous in B. …, UniProt Q8A1D9 22-493, lipid anchor cysteine)); O-glycosylation at 10 sites (Ser67 among them)).
T1 sequence (looked up): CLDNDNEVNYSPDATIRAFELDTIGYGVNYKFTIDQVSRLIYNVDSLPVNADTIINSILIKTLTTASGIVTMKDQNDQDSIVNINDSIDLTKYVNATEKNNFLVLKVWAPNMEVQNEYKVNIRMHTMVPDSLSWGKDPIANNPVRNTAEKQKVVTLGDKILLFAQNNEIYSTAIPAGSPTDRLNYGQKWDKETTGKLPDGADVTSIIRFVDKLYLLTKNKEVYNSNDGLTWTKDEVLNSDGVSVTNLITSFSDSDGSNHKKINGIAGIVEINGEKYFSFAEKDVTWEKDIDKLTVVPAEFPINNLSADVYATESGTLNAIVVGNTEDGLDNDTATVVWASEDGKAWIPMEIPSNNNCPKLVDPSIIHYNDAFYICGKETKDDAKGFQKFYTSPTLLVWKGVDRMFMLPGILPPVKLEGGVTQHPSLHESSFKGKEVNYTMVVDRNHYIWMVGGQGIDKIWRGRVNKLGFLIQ

The target in the test “BtBamH (Bt4306)” is B2.
The target in test [1] is T2, BtBamA (Bt3725), B. thetaiotaomicron BamA with N-terminal His7 tag (B. thetaiotaomicron, UniProt Q8A1E1 20-885).
T2 sequence (looked up): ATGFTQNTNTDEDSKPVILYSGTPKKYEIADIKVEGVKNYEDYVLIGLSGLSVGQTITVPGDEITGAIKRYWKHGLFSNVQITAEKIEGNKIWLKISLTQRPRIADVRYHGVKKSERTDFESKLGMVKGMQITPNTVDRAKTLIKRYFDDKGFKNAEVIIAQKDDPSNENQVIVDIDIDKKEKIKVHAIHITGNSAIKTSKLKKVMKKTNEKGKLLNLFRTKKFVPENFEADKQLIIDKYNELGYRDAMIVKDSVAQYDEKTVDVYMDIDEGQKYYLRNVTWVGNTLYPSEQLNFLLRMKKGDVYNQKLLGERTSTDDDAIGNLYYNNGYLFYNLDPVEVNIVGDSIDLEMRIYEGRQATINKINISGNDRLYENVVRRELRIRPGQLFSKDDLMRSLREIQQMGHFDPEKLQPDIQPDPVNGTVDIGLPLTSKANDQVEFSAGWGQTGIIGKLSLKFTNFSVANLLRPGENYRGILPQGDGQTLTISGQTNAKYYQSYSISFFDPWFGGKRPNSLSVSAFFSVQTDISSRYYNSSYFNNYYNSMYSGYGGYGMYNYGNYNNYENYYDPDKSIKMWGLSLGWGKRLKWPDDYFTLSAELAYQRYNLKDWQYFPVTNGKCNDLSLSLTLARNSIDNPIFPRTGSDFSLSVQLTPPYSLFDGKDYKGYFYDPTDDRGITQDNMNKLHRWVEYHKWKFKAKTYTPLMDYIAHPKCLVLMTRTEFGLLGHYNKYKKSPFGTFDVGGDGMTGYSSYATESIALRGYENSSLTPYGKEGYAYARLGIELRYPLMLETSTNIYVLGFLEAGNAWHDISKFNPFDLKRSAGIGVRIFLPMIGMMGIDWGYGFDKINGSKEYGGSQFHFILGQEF

B1: BtBamJ (Bt3612) (natural protein, UniProt Q8A1P7 20-196, looked up)
chain: CSETEEVGKYDNWRARNEAFIDSLANVYATASGRGGLERIEMLTAPGNYIYYKEMEPMTDHVVKAGNPKYTDYVKVYYKGTNILGEYFDGNFKGDNPVVDGKDPSEGDSPTTIFQVSGVITGWGEVLQRMEVGDRWKVYIPWDYAYGSSGTTGILGYSALVFDITLLDFANTEAELK
modifications: lipid anchor cysteine; O-glycosylation sites
Take B1: the binding result in the test with BtBamI (Bt3727) and with BtBamH (Bt4306) was “binds” in each case.

Consider B2, for which the binding result in test [1] was “binds”.
